In patent US20250135039A1, “INHIBITOR-RESISTANT MGMT MODIFICATIONS AND MODIFICATION OF MGMT-ENCODING NUCLEIC ACIDS” (Ensoma, Inc., priority 2022, published 2025):
Positions count from the first letter of the chain named. Names may count otherwise.

B1: M134W: MGMT polypeptide with mutation M134W (protein)
chain: MDKDCEMKRTTLDSPLGKLELSGCEQGLHEIKLLGKGTSAADAVEVPAPAAVLGGPEPLMQCTAWLNAYFHQPEAIEEFPVPALHHPVFQQESFTRQVLWKLLKVVKFGEVISYQQLAALAGNPKAARAVGGAWRGNPVPILIPCHRVVCSSGAVGNYSGGLAVKEWLLAHEGHRLGKPGLGGSSGLAGAWLKGAGATSGSPPAGRN
B2: N137D: MGMT polypeptide with mutation N137D (protein)
chain: B1 chain with W134M, N137D
B3: R135K: MGMT polypeptide with mutation R135K (protein)
chain: B1 chain with W134M, R135K
B4: N137F: MGMT polypeptide with mutation N137F (protein)
chain: B1 chain with W134M, N137F
B5: P138K: MGMT polypeptide with mutation P138K (protein)
chain: B1 chain with W134M, P138K
B6: M134Y: MGMT polypeptide with mutation M134Y (protein)
chain: B1 chain with W134Y
B7: N137P: MGMT polypeptide with mutation N137P (protein)
chain: B1 chain with W134M, N137P
B8: R135T: MGMT polypeptide with mutation R135T (protein)
chain: B1 chain with W134M, R135T
B9: R135L: MGMT polypeptide with mutation R135L (protein)
chain: B1 chain with W134M, R135L
B10: R135G: MGMT polypeptide with mutation R135G (protein)
chain: B1 chain with W134M, R135G

What follows are molecules tested on U251 human glioblastoma cell line (assay: in vitro FM-HCR assay of MGMT activity (mPlum O^6MeG reporter plasmid)). Conditions: 100 μM O^6BG; U251 cells; flow cytometry 24 h after transfection; damaged/undamaged reporter; inversely related to MGMT activity.
Type: cell-based
Source text: The present Example includes, in part, an in vitro fluorescence multiplex host cell reactivation (FM-HCR) assay in which a reporter plasmid with O^6MeG-containing oligonucleotides is used. The oligonucleotides induce transcription errors that lead to expression of fluorescent mPlum protein. Functional MGMT will repair the O^6MeG sites and reduce mPlum expression. This represents a rapid and validated assay system to assess intracellular activity of MGMT. Further description of certain such assays is found in Nagel (2014 PNAS USA 111 (18): E1823-32, which is incorporated herein by reference.
The present Example uses an in vitro FM-HCR assay in which a reporter plasmid with 0° MeG-containing oligonucleotides is used to assay MGMT activity in cells. The O^6MeG-containing oligonucleotides induce transcription errors that lead to expression of fluorescent mPlum protein. Functional MGMT will repair the O'MeG sites and reduce mPlum expression. This represents a rapid and validated assay system to assess intracellular activity of MGMT. Further description of certain such assays is found in Nagel et al., 2014 PNAS USA 111 (18): E1823-32 and Piett et al., 2021 Nat. Protoc. 16 (9): 4265-4298, each of which is incorporated herein by reference.
The in vitro FM-HCR assay was performed using the U251 human glioblastoma cell line. The cells were cultured in DMEM with 10% FBS and passaged every three days.
To express MGMT variants in the cells, plasmids encoding each MGMT variant were designed and generated by either de novo synthesis or cloning into the pTwist EF1 Alpha Puro vector at the HindII-BamHI multiple cloning site. The pTwist EF1 Alpha Puro plasmid vector drives expression of the MGMT transcript from a human EF1-alpha promoter including intron 1 and an SV40 polyadenylation signal. Plasmids encoding the MGMT variants were purified using standard molecular biology techniques from E. coli with low endotoxins. Plasmids encoding wild-type MGMT or O^6BG-resistant MGMT^P140K were also designed and generated for use as controls.
To perform the in vitro FM-HCR assay, U251 cells were seeded in 12-well plates at a density of 50,000 cells per well in 1 mL culture media. The following day, the media was changed to 1 mL of culture media containing O^6BG (100 μM O^6BG and 0.1% DMSO final) or 0.1% DMSO; and the cells were transfected with 1,000 ng of a plasmid cocktail using Lipofectamine 3000 (ThermoFisher Scientific) at 1.8 μL Lipofectamine 3000 Reagent and 2 μL P3000 reagent in Opti-MEM medium (ThermoFisher Scientific). […] For the “undamaged” condition, the plasmid cocktail replaced the mPlum O^6MeG reporter plasmid with 100 ng of a plasmid expressing mPlum. The plasmid encoding BFP was used as an internal transfection control. For transfections where no MGMT encoding plasmid is used (no pMGMT), 250 ng of additional carrier plasmid was used to maintain a total DNA amount of 1,000 ng in each transfection. Four hours after transfection, the transfection medium was changed.
All transfected cells were analyzed by flow cytometry at 24-hours after transfection. Data was analyzed as previously described in Nagel et al., 2014 PNAS USA 111 (18): E1823-32 and Piett et al., 2021 Nat. Protoc. 16 (9): 4265-4298. For each condition, normalized reporter expression was determined by taking the product of the mPlum-positive cell count and the mean mPlum fluorescence intensity in mPlum-positive cells and dividing it by the product of the BFP-positive cell count and the mean BFP fluorescence intensity in BFP-positive cells. Next, for each MGMT variant, the percent reporter expression was determined by taking the normalized reporter expression in the “damaged” condition and dividing it by the normalized reporter expression in the “undamaged” condition, and then multiplying by 100 to obtain a percent value. […]

| Molecule | Reporter expression (%) mean, O^6BG [%] |
| --- | --- |
| B1 | 112.3 |
| B2 | 80.7 |
| B3 | 84.3 |
| B4 | 104.3 |
| B5 | 64.0 |
| B6 | 106.3 |
| B7 | 93.0 |
| B8 | 101.7 |
| B9 | 82.5 |
| B10 | 106.0 |

Same assay, conditions: 0.1% DMSO; U251 cells; flow cytometry 24 h after transfection; damaged/undamaged reporter; inversely related to MGMT activity

| Molecule | Reporter expression (%) mean, DMSO [%] |
| --- | --- |
| B1 | 103.5 |
| B2 | 52.3 |
| B3 | 13.3 |
| B4 | 109.7 |
| B5 | 16.3 |
| B6 | 108.0 |
| B7 | 94.0 |
| B8 | 27.3 |
| B9 | 42.8 |
| B10 | 20.0 |

Same assay, conditions: DMSO condition; determined from percent reporter expression

| Molecule | MGMT activity (a.u.) DMSO [a.u.] |
| --- | --- |
| B1 | 0.97 |
| B2 | 1.91 |
| B3 | 7.50 |
| B4 | 0.91 |
| B5 | 6.12 |
| B6 | 0.93 |
| B7 | 1.06 |
| B8 | 3.66 |
| B9 | 2.34 |
| B10 | 5.00 |

Same assay, conditions: DMSO condition; relative to wild-type MGMT in same condition

| Molecule | MGMT activity (% of WT) DMSO |
| --- | --- |
| B1 | 17.9 % of WT |
| B2 | 35.4 % of WT |
| B3 | 138.8 % of WT |
| B4 | 16.9 % of WT |
| B5 | 113.3 % of WT |
| B6 | 17.1 % of WT |
| B7 | 19.7 % of WT |
| B8 | 67.7 % of WT |
| B9 | 43.3 % of WT |
| B10 | 92.5 % of WT |

Same assay, conditions: MGMT activity (a.u.) in O^6BG divided by DMSO x 100; higher values indicate resistance

| Molecule | Relative MGMT activity (%) |
| --- | --- |
| B1 | 92.1 |
| B2 | 64.9 |
| B3 | 15.8 |
| B4 | 105.1 |
| B5 | 25.5 |
| B6 | 101.6 |
| B7 | 101.1 |
| B8 | 26.9 |
| B9 | 51.8 |
| B10 | 18.9 |

Same assay, conditions: O^6BG condition; determined from percent reporter expression

| Molecule | MGMT activity (a.u.) O^6BG [a.u.] |
| --- | --- |
| B1 | 0.89 |
| B2 | 1.24 |
| B3 | 1.19 |
| B4 | 0.96 |
| B5 | 1.56 |
| B6 | 0.94 |
| B7 | 1.08 |
| B8 | 0.98 |
| B9 | 1.21 |
| B10 | 0.94 |

Same assay, conditions: O^6BG condition; relative to wild-type MGMT in same condition

| Molecule | MGMT activity (% of WT) O^6BG |
| --- | --- |
| B1 | 62.3 % of WT |
| B2 | 86.8 % of WT |
| B3 | 83.0 % of WT |
| B4 | 67.1 % of WT |
| B5 | 109.4 % of WT |
| B6 | 65.8 % of WT |
| B7 | 75.3 % of WT |
| B8 | 68.9 % of WT |
| B9 | 84.8 % of WT |
| B10 | 66.0 % of WT |

Same assay, conditions: lower values indicate resistance to O^6BG

| Molecule | Ratio percent reporter expression (O^6BG/DMSO) |
| --- | --- |
| B1 | 1.09 |
| B2 | 1.54 |
| B3 | 6.33 |
| B4 | 0.95 |
| B5 | 3.92 |
| B6 | 0.98 |
| B7 | 0.99 |
| B8 | 3.72 |
| B9 | 1.93 |
| B10 | 5.30 |

Same assay, conditions: percentage difference in relative MGMT activity between variant and wild-type MGMT

| Molecule | O^6BG resistance relative to WT (%) |
| --- | --- |
| B1 | 248.6 |
| B2 | 145.5 |
| B3 | −40.2 |
| B4 | 297.7 |
| B5 | −3.4 |
| B6 | 284.3 |
| B7 | 282.4 |
| B8 | 1.7 |
| B9 | 96.1 |
| B10 | −28.6 |
